Measured values published in patent US20200181597A1, “Composition and Application of Arginine-depleting Agents for Cancer, Obesity, Metabolic Disorders, and Related Complications and Comorbidities” (THE HONG KONG POLYTECHNIC UNIVERSITY, priority 2018, published 2020).

Tests used:
4T1 cells = assay: Trans-well migration and invasion assay; assay type: cell-based, mouse; conditions: 1 U/mL, 20 h
Protocol: (§1) Breast cancer cell lines (human MDA-MB-231 cells and mouse 4T1 cells) were used in these studies. Both migration assay and invasion assay were performed in 24 wells Costar (Corning) Trans-well system (polycarbonate membrane inserts, pore size 8.0 μm). Before the assay, the cells were cultivated in appropriate serum free medium for at least 24 h. One day before seeding cells to the upper chambers, 100 μL diluted matrigel was added to the upper chambers of the inserts for invasion assay. Serum free medium (100 μL) was added to the upper chamber used for migration assay. The 24 well plates were incubated in the incubator for overnight. The next day, cells were trypsinized and counted. In the studies, 3×10^4 cells of 4T1 or 5×10^4 cells of MDA-MB-231, with 200 μL appropriate serum free medium, were seeded into the upper chambers. Appropriate complete medium (750 μL) was added to the lower chambers. For the drug treatment group, 1 U/mL His-rhArg (SEQ ID NO: 101) was added to both chambers. The 24 well plates were incubated at 37° C. humidified atmosphere with 5% CO2 for 20 h (4T1 cells) or 24 h (MDA-MB-231 cells).
(§2) After incubation, the medium in the upper chambers was removed. The trans-well inserts were washed with 1×PBS twice. Cold 100% methanol was added to both upper chambers and lower chambers for 10 min to fix the cells. The inserts were washed with 1×PBS for two times. […]

MCF-7 cancer cells = assay: cells; assay type: cell-based, human; conditions: MCF-7, single agent
Protocol: (§3) Breast cancer cell lines (e.g. human MCF-7 and MDA-MB-231 cells) were used in these studies. Cancer cells (5×10^3 cells) were seeded in 96-well plates (TPP) with […] complete medium. The plates were incubated in incubator overnight and the cells were allowed to adhere to the plates. […] Each dosage was triplicated in 3 wells to obtain the average change of cell viability. […] The plates were put back into the incubator and further incubated for 4 h. To dissolve the insoluble compound, formazan, formed by MTT, 100 μl of 10% SDS in 0.01 M HCl was added. The plates were incubated at 37° C. overnight. The color change was measured by spectrophotometer at 570 nm. Control set up (without any drug) was used as base to calculate percentage of cell viability which was used to plot the dose response curve by the software Prism 6.0 (GraphPad) to find the IC50 values. […] CalcuSyn software (Biosoft) was used for calculating the CI values.

[1] = system: MDA-MB-231 breast cancer cells; assay: cells; assay type: cell-based, human; conditions: MDA-MB-231, single agent
Protocol: as §3

MDA-MB-231 cells = assay: Trans-well migration and invasion assay; assay type: cell-based, human; conditions: 1 U/mL, 24 h
Protocol: as §1, §2

B1: His-rhArg: recombinant human arginase with His tag, SEQ ID NO: 101 (protein)
chain: MHHHHHHMSAKSRTIGIIGAPFSKGQPRGGVEEGPTVLRKAGLLEKLKEQECDVKDYGDLPFADIPNDSPFQIVKNPRSVGKASEQLAGKVAEVKKNGRISLVLGGDHSLAIGSISGHARVHPDLGVIWVDAHTDINTPLTTTSGNLHGQPVSFLLKELKGKIPDVPGFSWVTPCISAKDIVYIGLRDVDPGEHYILKTLGIKYFSMTEVDRLGIGKVMEETLSYLLGRKKRPIHLSFDVDGLDPSFTPATGTPVVGGLTYREGLYITEEIYKTGLLSGLDIMEVNPSLGKTPEEVTRTVNTAVAITLACFGLAREGNHKPIDYLNPPK
modifications: His tag; His-rhArg, Synthesized in Lab
number of cancer cells that can migrate and invade via the transwell inserts (4T1 cells): decreased | IC50 (MCF-7 cancer cells): 0.7869 U/mL | IC50 [1]: 0.9522 U/mL | number of cancer cells that can migrate and invade via the transwell inserts (MDA-MB-231 cells): decreased
